B1: HESX1 (parent)
chain: HVPNPPSGISFPSVVDHPMPEERA

Variants of: B1
Test: protein stability index of a GFP-peptide fusion (GPS, HEK-293T) (PSI 1-6); higher = more stable
Conditions: c terminus: a fixed tail appended
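Note: lentivirally expressed fusions sorted by FACS into six bins by GFP to DsRed ratio, PSI derived from sequencing read proportions per bin multiplied by bin number.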

Point of comparison: HVPNPPSGISFFSVVDHPMPEERA, protein stability index 1.75. Against it:
- HVPNVPSGISFPSVVDHPMPEERA — higher, 2.82
- HVPNCPSGISFPSVVDHPMPEERA — higher, 2.45
- HVPNEPSGISFPSVVDHPMPEERA — higher, 3.81
- HVPNNPSGISFPSVVDHPMPEERA — higher, 3.03
- HVPNRPSGISFPSVVDHPMPEERA — higher, 3.28
- HVPNDPSGISFPSVVDHPMPEERA — higher, 3.96
- HVPNAPSGISFPSVVDHPMPEERA — higher, 2.71
- HVPNQPSGISFPSVVDHPMPEERA — higher, 3.5
- HVPNGPSGISFPSVVDHPMPEERA — higher, 1.93
- HVPNYPSGISFPSVVDHPMPEERA — higher, 2.03
- HVPNLPSGISFPSVVDHPMPEERA — higher, 2.53
- HVPNIPSGISFPSVVDHPMPEERA — higher, 3.02
- HVPNMPSGISFPSVVDHPMPEERA — higher, 2.95
- HVPNHPSGISFPSVVDHPMPEERA — higher, 2.6
- HVPNWPSGISFPSVVDHPMPEERA — higher, 2.39
- HVPNKPSGISFPSVVDHPMPEERA — higher, 2.69
- HVPNSPSGISFPSVVDHPMPEERA — higher, 3.76
- HVPNFPSGISFPSVVDHPMPEERA — higher, 2.38
- HVPNTPSGISFPSVVDHPMPEERA — higher, 2.74
- HVPNPPSGGSFPSVVDHPMPEERA — higher, 3.59
- HVPNPPSGESFPSVVDHPMPEERA — higher, 3.58
- HVPNPPSGKSFPSVVDHPMPEERA — higher, 3.53
- HVPNPPSGRSFPSVVDHPMPEERA — higher, 2.67
- HVPNPPSGTSFPSVVDHPMPEERA — higher, 3.8
- HVPNPPSGASFPSVVDHPMPEERA — higher, 3.04
- HVPNPPSGYSFPSVVDHPMPEERA — higher, 2.43
- HVPNPPSGPSFPSVVDHPMPEERA — higher, 2.23
- HVPNPPSGNSFPSVVDHPMPEERA — higher, 3.31
- HVPNPPSGMSFPSVVDHPMPEERA — higher, 2.5
- HVPNPPSGSSFPSVVDHPMPEERA — higher, 3.33
- HVPNPPSGCSFPSVVDHPMPEERA — higher, 2.66
- HVPNPPSGWSFPSVVDHPMPEERA — higher, 2.37
- HVPNPPSGQSFPSVVDHPMPEERA — higher, 3.62
- HVPNPPSGHSFPSVVDHPMPEERA — higher, 3.24
- HVPNPPSGLSFPSVVDHPMPEERA — higher, 2.14
- HVPNPPSGFSFPSVVDHPMPEERA — higher, 3.22
- HVPNPPSGVSFPSVVDHPMPEERA — higher, 2.94
- HVPNPPSGDSFPSVVDHPMPEERA — higher, 4.1
- HVWNPPSGISFPSVVDHPMPEERA — higher, 2.94
- HVTNPPSGISFPSVVDHPMPEERA — higher, 3.9
- HVSNPPSGISFPSVVDHPMPEERA — higher, 3.78
- HVVNPPSGISFPSVVDHPMPEERA — higher, 3.86
- HVYNPPSGISFPSVVDHPMPEERA — higher, 3.54
- HVPNPPSGISFPMVVDHPMPEERA — higher, 2.08
- HVPNPPSGISFPIVVDHPMPEERA — higher, 2.58
- HVPNPPSGISFPLVVDHPMPEERA — higher, 2.09
- HVPNPPSGISFPFVVDHPMPEERA — higher, 1.89
- HVPNPPSGISFPEVVDHPMPEERA — higher, 3.65
- HVPNPPSGISFPNVVDHPMPEERA — higher, 3.04
- HVPNPPSGISFPGVVDHPMPEERA — higher, 2.81
- HVPNPPSGISFPAVVDHPMPEERA — higher, 2.55
- HVPNPPSGISFPCVVDHPMPEERA — higher, 2.45
- HVPNPPSGISFPPVVDHPMPEERA — higher, 2.73
- HVPNPPSGISFPKVVDHPMPEERA — lower, 1.71
- HVPNPPSGISFPDVVDHPMPEERA — higher, 3.94
- HVPNPPSGISFPHVVDHPMPEERA — higher, 2.33
- HVPNPHSGISFPSVVDHPMPEERA — higher, 1.83
- HVPNPTSGISFPSVVDHPMPEERA — higher, 2.13
- HVPNPWSGISFPSVVDHPMPEERA — higher, 2.25
- HVPNPMSGISFPSVVDHPMPEERA — higher, 2.63
- HVPNPRSGISFPSVVDHPMPEERA — lower, 1.71
- HVPNPGSGISFPSVVDHPMPEERA — higher, 1.81
- HVPNPCSGISFPSVVDHPMPEERA — lower, 1.69
- HVPNPLSGISFPSVVDHPMPEERA — higher, 2.62
- HVPNPDSGISFPSVVDHPMPEERA — higher, 2.56
- HVPNPQSGISFPSVVDHPMPEERA — higher, 2.67
- HVPNPVSGISFPSVVDHPMPEERA — higher, 2.11
- HVPNPKSGISFPSVVDHPMPEERA — higher, 1.78
- HVPNPASGISFPSVVDHPMPEERA — higher, 2.34
- HVPNPFSGISFPSVVDHPMPEERA — lower, 1.59
- HVPNPESGISFPSVVDHPMPEERA — higher, 2.98
- HVPNPISGISFPSVVDHPMPEERA — higher, 2.24
- HVPNPNSGISFPSVVDHPMPEERA — higher, 2
- HVPNPSSGISFPSVVDHPMPEERA — higher, 2.4
- HVPNPYSGISFPSVVDHPMPEERA — higher, 2.39
- HVPFPPSGISFPSVVDHPMPEERA — higher, 3.47
- HVPLPPSGISFPSVVDHPMPEERA — higher, 4.27
- HVPKPPSGISFPSVVDHPMPEERA — higher, 3.76
- HVPTPPSGISFPSVVDHPMPEERA — higher, 2.22
- HVPSPPSGISFPSVVDHPMPEERA — higher, 2.24
- HVPVPPSGISFPSVVDHPMPEERA — higher, 2.71
- HVPRPPSGISFPSVVDHPMPEERA — higher, 4.18
- HVPQPPSGISFPSVVDHPMPEERA — higher, 3.45
- HVPGPPSGISFPSVVDHPMPEERA — lower, 1.66
- HVPWPPSGISFPSVVDHPMPEERA — higher, 3.44
- HVPDPPSGISFPSVVDHPMPEERA — higher, 3.88
- HVPYPPSGISFPSVVDHPMPEERA — higher, 3.06
- HVPCPPSGISFPSVVDHPMPEERA — higher, 2.23
- HVPHPPSGISFPSVVDHPMPEERA — higher, 3.09
- HVPMPPSGISFPSVVDHPMPEERA — higher, 3.04
- HVPIPPSGISFPSVVDHPMPEERA — higher, 3.54
- HVPAPPSGISFPSVVDHPMPEERA — lower, 1.65
- HVPEPPSGISFPSVVDHPMPEERA — higher, 3.8
- HVPNPPSGIWFPSVVDHPMPEERA — higher, 1.97
- HVPNPPSGIEFPSVVDHPMPEERA — higher, 3.39
- HVPNPPSGIIFPSVVDHPMPEERA — higher, 2.59
- HVPNPPSGICFPSVVDHPMPEERA — higher, 2.19
- HVPNPPSGIPFPSVVDHPMPEERA — higher, 2.29
- HVPNPPSGIVFPSVVDHPMPEERA — higher, 2.58
- HVPNPPSGINFPSVVDHPMPEERA — higher, 3.5
- HVPNPPSGIGFPSVVDHPMPEERA — higher, 2.25
- HVPNPPSGIKFPSVVDHPMPEERA — higher, 2.38
- HVPNPPSGIDFPSVVDHPMPEERA — higher, 3.77
- HVPNPPSGIAFPSVVDHPMPEERA — higher, 2.79
- HVPNPPSGILFPSVVDHPMPEERA — higher, 2.38
- HVPNPPSGIRFPSVVDHPMPEERA — higher, 2.03
- HVPNPPSGIHFPSVVDHPMPEERA — higher, 2.81
- HVPNPPSGIFFPSVVDHPMPEERA — higher, 2.61
- HVPNPPSGIYFPSVVDHPMPEERA — higher, 2.18
- HVPNPPSGITFPSVVDHPMPEERA — higher, 2.97
- HVPNPPSGIQFPSVVDHPMPEERA — higher, 2.42
- HVPNPPSGIMFPSVVDHPMPEERA — higher, 2.56
- HVPNPPHGISFPSVVDHPMPEERA — higher, 2.54
- HVPNPPRGISFPSVVDHPMPEERA — higher, 2.9
- HVPNPPTGISFPSVVDHPMPEERA — higher, 2.75
- HVPNPPPGISFPSVVDHPMPEERA — higher, 2.7
- HVPNPPAGISFPSVVDHPMPEERA — higher, 3.88
- HVPNPPYGISFPSVVDHPMPEERA — higher, 2.04
- HVPNPPGGISFPSVVDHPMPEERA — higher, 2.4
- HVPNPPEGISFPSVVDHPMPEERA — higher, 3.57
- HVPNPPQGISFPSVVDHPMPEERA — higher, 2.84
- HVPNPPMGISFPSVVDHPMPEERA — higher, 2.74
- HVPNPPCGISFPSVVDHPMPEERA — higher, 2.38
- HVPNPPDGISFPSVVDHPMPEERA — higher, 2.8
- HVPNPPFGISFPSVVDHPMPEERA — higher, 2.15
- HVPNPPKGISFPSVVDHPMPEERA — higher, 2.93
- HVPNPPVGISFPSVVDHPMPEERA — higher, 3.3
- HVPNPPLGISFPSVVDHPMPEERA — higher, 3.61
- HVPNPPNGISFPSVVDHPMPEERA — higher, 2.99
- HVPNPPWGISFPSVVDHPMPEERA — lower, 1.71
- HVPNPPIGISFPSVVDHPMPEERA — higher, 3.4
- HVPNPPSGISQPSVVDHPMPEERA — higher, 4.83
- HVPNPPSGISVPSVVDHPMPEERA — higher, 4.42
- HVPNPPSGISKPSVVDHPMPEERA — higher, 5.12
- HVPNPPSGISYPSVVDHPMPEERA — higher, 4.22
- HVPNPPSGISAPSVVDHPMPEERA — higher, 5
- HVPNPPSGISMPSVVDHPMPEERA — higher, 4.88
- HVPNPPSGISWPSVVDHPMPEERA — higher, 2.54
- HVPNPPSGISTPSVVDHPMPEERA — higher, 4.8
- HVPNPPSGISDPSVVDHPMPEERA — higher, 5.23
- HVPNPPSGISHPSVVDHPMPEERA — higher, 4.48
- HVPNPPSGISCPSVVDHPMPEERA — higher, 4.39
- HVPNPPSGISLPSVVDHPMPEERA — higher, 4.93
- HVPNPPSGISSPSVVDHPMPEERA — higher, 4.86
- HVPNPPSGISPPSVVDHPMPEERA — higher, 5.21
- HVPNPPSGISGPSVVDHPMPEERA — higher, 4.65
- HVPNPPSGISNPSVVDHPMPEERA — higher, 4.54
- HVPNPPSGISRPSVVDHPMPEERA — higher, 4.37
- HVPNPPSGISEPSVVDHPMPEERA — higher, 5.4
- HVPNPPSGISIPSVVDHPMPEERA — higher, 4.39
- HVPNPPSGISFLSVVDHPMPEERA — higher, 2.79
- HVPNPPSGISFKSVVDHPMPEERA — higher, 3.83
- HVPNPPSGISFASVVDHPMPEERA — higher, 3.44
- HVPNPPSGISFDSVVDHPMPEERA — higher, 4.85
- HVPNPPSGISFTSVVDHPMPEERA — higher, 3.78
- HVPNPPSGISFGSVVDHPMPEERA — higher, 3.82
- HVPNPPSGISFMSVVDHPMPEERA — higher, 2.72
- HVPNPPSGISFSSVVDHPMPEERA — higher, 4.01
- HVPNPPSGISFNSVVDHPMPEERA — higher, 3.98
- HVPNPPSGISFRSVVDHPMPEERA — higher, 3.42
- HVPNPPSGISFESVVDHPMPEERA — higher, 4.57
- HVPNPPSGISFQSVVDHPMPEERA — higher, 3.92
- HVPNPPSGISFWSVVDHPMPEERA — higher, 3.85
- HVPNPPSGISFISVVDHPMPEERA — higher, 2.43
- HVPNPPSGISFHSVVDHPMPEERA — higher, 3.38
- HVPNPPSGISFVSVVDHPMPEERA — higher, 2.99
- HVPNPPSGISFCSVVDHPMPEERA — higher, 2.72
- HVPNPPSGISFYSVVDHPMPEERA — higher, 2.56
- HVPNPPSVISFPSVVDHPMPEERA — higher, 2.87
- HVPNPPSWISFPSVVDHPMPEERA — higher, 2.87
- HVPNPPSFISFPSVVDHPMPEERA — higher, 2.84
- HVPNPPSCISFPSVVDHPMPEERA — higher, 2.36
- HVPNPPSMISFPSVVDHPMPEERA — higher, 2.59
- HVPNPPSYISFPSVVDHPMPEERA — higher, 2.09
- HVPNPPSNISFPSVVDHPMPEERA — higher, 3.48
- HVPNPPSHISFPSVVDHPMPEERA — higher, 3.49
- HVPNPPSEISFPSVVDHPMPEERA — higher, 3.01
- HVPNPPSDISFPSVVDHPMPEERA — higher, 4.1
- HVPNPPSTISFPSVVDHPMPEERA — higher, 2.91
- HVPNPPSQISFPSVVDHPMPEERA — higher, 3.18
- HVPNPPSAISFPSVVDHPMPEERA — higher, 3.2
- HVPNPPSSISFPSVVDHPMPEERA — higher, 3.03
- HVPNPPSLISFPSVVDHPMPEERA — higher, 3.17
- HVPNPPSRISFPSVVDHPMPEERA — higher, 2.94
- HVPNPPSKISFPSVVDHPMPEERA — higher, 3.62
- HVPNPPSIISFPSVVDHPMPEERA — higher, 2.83
- HVPNPPSPISFPSVVDHPMPEERA — higher, 4.09
